Laboratory results published in patent US20260022175A1.

Assays:
Experiment in all cases: SPR Biacore 8k+ 25C, antibody captured, FcγR analyte; mean
[1] = molecular target: cynomolgus monkey FcγRIIIa(R) extracellular domain with His tag (cynomolgus monkey) (UniProt Q8SPW2)
[2] = molecular target: cynomolgus monkey FcγRIIIa(S) extracellular domain with His tag (cynomolgus monkey) (UniProt Q8SPW2)
[3] = molecular target: cynomolgus monkey FcγRIIa1 extracellular domain with His tag (cynomolgus monkey)
Chain of cynomolgus monkey FcγRIIa1 extracellular domain with His tag (cynomolgus monkey) (chain, as listed by the source): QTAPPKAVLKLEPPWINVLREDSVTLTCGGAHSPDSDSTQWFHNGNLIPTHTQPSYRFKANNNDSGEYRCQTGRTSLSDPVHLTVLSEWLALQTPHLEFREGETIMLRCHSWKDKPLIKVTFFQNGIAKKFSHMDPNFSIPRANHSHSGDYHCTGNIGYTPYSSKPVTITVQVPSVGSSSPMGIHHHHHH

[4] = molecular target: cynomolgus monkey FcγRIIa2 extracellular domain with His tag (cynomolgus monkey)
Chain of cynomolgus monkey FcγRIIa2 extracellular domain with His tag (cynomolgus monkey) (chain, as listed by the source): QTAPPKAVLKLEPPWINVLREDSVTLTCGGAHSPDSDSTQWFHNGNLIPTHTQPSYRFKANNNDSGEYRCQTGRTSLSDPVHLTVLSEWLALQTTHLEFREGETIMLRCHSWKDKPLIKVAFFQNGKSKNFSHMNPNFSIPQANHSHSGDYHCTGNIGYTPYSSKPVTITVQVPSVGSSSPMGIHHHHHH

[5] = molecular target: cynomolgus monkey FcγRIIa3 extracellular domain with His tag (cynomolgus monkey)
Chain of cynomolgus monkey FcγRIIa3 extracellular domain with His tag (cynomolgus monkey) (chain, as listed by the source): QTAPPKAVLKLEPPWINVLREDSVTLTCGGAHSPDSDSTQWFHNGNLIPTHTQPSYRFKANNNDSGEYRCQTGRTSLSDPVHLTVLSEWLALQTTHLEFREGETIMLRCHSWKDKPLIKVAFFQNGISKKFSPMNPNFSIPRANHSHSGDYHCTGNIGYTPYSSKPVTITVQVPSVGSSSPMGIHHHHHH

[6] = molecular target: cynomolgus monkey FcγRIIb extracellular domain with His tag (cynomolgus monkey)
Chain of cynomolgus monkey FcγRIIb extracellular domain with His tag (cynomolgus monkey) (chain, as listed by the source): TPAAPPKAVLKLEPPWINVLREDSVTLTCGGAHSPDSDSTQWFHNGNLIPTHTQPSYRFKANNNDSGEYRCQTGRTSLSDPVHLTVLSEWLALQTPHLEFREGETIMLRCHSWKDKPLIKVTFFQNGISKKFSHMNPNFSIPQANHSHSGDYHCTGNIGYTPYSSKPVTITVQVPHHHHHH

[7] = molecular target: cynomolgus monkey FcγRIa extracellular domain with His tag (cynomolgus monkey)
Chain of cynomolgus monkey FcγRIa extracellular domain with His tag (cynomolgus monkey) (P12314 other isoform, or with tags, fused parts or gaps): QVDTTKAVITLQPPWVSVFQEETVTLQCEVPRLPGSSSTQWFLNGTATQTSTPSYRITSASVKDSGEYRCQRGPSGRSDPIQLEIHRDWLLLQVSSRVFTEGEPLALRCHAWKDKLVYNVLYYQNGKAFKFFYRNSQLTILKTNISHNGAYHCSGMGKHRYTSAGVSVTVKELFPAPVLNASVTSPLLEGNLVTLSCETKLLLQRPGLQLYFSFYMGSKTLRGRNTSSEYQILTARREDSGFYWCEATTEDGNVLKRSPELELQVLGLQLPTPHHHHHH

[8] = molecular target: human FcγRIIIa(F) extracellular domain with C-terminal His tag (human) (UniProt P08637)
Chain of human FcγRIIIa(F) extracellular domain with C-terminal His tag (human) (P08637 other isoform, or with tags, fused parts or gaps): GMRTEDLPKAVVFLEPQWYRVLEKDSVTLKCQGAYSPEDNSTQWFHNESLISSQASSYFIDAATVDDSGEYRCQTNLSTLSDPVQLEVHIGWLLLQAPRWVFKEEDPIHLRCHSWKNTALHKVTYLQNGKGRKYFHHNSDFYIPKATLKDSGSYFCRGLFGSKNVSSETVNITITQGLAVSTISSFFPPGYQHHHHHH

[9] = molecular target: human FcγRIIIa(V) extracellular domain with C-terminal His tag (human) (UniProt P08637)
Chain of human FcγRIIIa(V) extracellular domain with C-terminal His tag (human) (P08637 other isoform, or with tags, fused parts or gaps): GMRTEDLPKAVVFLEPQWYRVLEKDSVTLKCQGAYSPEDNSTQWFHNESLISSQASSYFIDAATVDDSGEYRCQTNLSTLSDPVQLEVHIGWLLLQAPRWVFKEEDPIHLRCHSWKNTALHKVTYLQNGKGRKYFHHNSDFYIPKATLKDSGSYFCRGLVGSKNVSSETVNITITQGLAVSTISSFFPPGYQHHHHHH

[10] = molecular target: human FcγRIIa(H) extracellular domain with C-terminal His tag (human) (UniProt P12318)
Chain of human FcγRIIa(H) extracellular domain with C-terminal His tag (human) (P12318 34-217): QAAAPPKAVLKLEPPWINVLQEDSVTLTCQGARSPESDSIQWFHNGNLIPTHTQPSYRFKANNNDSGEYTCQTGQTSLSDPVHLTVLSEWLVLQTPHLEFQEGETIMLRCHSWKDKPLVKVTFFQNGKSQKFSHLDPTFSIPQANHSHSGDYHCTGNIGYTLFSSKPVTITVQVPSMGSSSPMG

[11] = molecular target: human FcγRIIa(R) extracellular domain with C-terminal His tag (human) (UniProt P12318)
Chain of human FcγRIIa(R) extracellular domain with C-terminal His tag (human) (P12318 34-217 H167R): as the sequence (P12318 34-217) above, with H134R counted along it

[12] = molecular target: human FcγRIIb extracellular domain with C-terminal His tag (human) (UniProt P31994)
Chain of human FcγRIIb extracellular domain with C-terminal His tag (human) (P31994 other isoform, or with tags, fused parts or gaps): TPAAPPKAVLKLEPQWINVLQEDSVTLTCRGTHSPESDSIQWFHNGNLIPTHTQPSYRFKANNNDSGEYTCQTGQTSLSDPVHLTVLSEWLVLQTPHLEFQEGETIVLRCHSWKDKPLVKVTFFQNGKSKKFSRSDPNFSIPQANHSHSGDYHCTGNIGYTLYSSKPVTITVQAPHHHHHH

[13] = molecular target: human FcγRIa extracellular domain with C-terminal His tag (human) (UniProt P12314)
Chain of human FcγRIa extracellular domain with C-terminal His tag (human) (P12314 other isoform, or with tags, fused parts or gaps): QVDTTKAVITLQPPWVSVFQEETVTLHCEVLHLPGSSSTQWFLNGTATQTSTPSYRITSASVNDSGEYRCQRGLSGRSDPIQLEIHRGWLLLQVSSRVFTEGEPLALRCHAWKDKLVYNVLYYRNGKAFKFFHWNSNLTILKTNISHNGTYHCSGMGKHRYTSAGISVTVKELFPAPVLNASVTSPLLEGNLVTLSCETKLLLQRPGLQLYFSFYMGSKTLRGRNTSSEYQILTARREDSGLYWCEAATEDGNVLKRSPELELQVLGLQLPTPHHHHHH

Chain of cynomolgus monkey FcγRIIIa(R) extracellular domain with His tag (cynomolgus monkey) (Q8SPW2 other isoform, or with tags, fused parts or gaps): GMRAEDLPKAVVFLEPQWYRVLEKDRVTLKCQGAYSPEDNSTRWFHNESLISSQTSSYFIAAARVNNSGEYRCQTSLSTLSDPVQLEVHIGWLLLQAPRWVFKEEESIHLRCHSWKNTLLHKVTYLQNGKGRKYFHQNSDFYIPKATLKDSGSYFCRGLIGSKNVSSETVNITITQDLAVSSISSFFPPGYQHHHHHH
Chain of cynomolgus monkey FcγRIIIa(S) extracellular domain with His tag (cynomolgus monkey) (Q8SPW2 other isoform, or with tags, fused parts or gaps): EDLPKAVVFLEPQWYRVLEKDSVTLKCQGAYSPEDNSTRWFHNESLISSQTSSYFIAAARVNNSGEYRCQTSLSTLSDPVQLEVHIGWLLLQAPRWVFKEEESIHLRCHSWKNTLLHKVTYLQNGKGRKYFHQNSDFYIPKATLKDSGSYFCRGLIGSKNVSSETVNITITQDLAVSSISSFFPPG

“Tremfya (Janssen Pharmaceutical K.K) (antibody)” showed a Kd [1] of 579 nM, a Kd [2] of 497 nM and a Kd [3] of 6800 nM. It also gave a Kd [4] of 7530 nM, a Kd [5] of 39800 nM and a Kd [6] of 5670 nM. It also gave a Kd [7] of 0.0109 nM, a Kd [8] of 9090 nM and a Kd [9] of 1020 nM. The Kd [10] was 1250 nM, the Kd [11] was 1880 nM and the Kd [12] was 16500 nM. The Kd [13] was 0.0908 nM.
